# Data reported in US7056679 (ANTYRA, dated 2006).
# T1: DGI-2 polypeptide (UniProt Q15004 1-111, limits assumed)
# T1 construct: Soluble recombinant protein coated at 500 ng/well; vector tag of pIVEX2.3-MCS not described for this construct; also called KIAA0101
# T1 sequence (looked up): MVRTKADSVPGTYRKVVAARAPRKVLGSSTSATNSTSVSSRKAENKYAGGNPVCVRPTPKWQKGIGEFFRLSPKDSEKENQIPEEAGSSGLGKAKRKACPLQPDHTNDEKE
# T2: DGI-2 polypeptide (UniProt Q15004 1-111, limits assumed)
# T2 construct: Vector-derived residues or tag of pIVEX2.3 are not described for this construct; also called KIAA0101
# T2 sequence (looked up): T1 sequence (looked up)
# B1: DGI-2-20R-4-E82 (peptide)
# peptide: DAGIGWVGSMWFPPGCIGACAAAGAPVPYPDPLEPRP
# notes: not shown: phage gene III coat protein (pCANTAB5E)
# B2: DGI-2-20R-3-A9 (peptide)
# peptide: LQIVRPAGWKMPGQVGYYIGAAAGAPVPYPDPLEPRP
# notes: as for B1
# B3: DGI-2-40F-4-F6 (peptide)
# peptide: SYRNFAMQSSLQVRRGSVVEDGTCWWEGVRCYSGAAAGAPVPYPDPLEPRP
# notes: as for B1
# B4: DGI-2-20F-3-C1 (peptide)
# peptide: GSVLERGCLEFSGFCFSLGHAAAGAPVPYPDPLEPRP
# notes: as for B1
# B5: DGI-2-20R-3-B7 (peptide)
# peptide: SWRLWVSGELQGDRRKGLRGAAAGAPVPYPDPLEPRP
# notes: as for B1
# B6: DGI-2-20C-4-H316 (peptide)
# peptide: RWSICRGLQYSIPGCAVEDLSDVMAAAAGAPVPYPDPLEPRP
# notes: as for B1
# B7: DGI-2-20R-4-H12 (peptide)
# peptide: MSTLQGPGHLFQMLRRASLGAAAGAPVPYPDPLEPRP
# notes: as for B1
# B8: DGI-2-40F-3-D11 (peptide)
# peptide: LHFGSVMGWRPPGSLWSRPFGQVHPRSWSGSAAAGAPVPYPDPLEPRP
# notes: as for B1
# B9: DGI-2-20F-4-E3 (peptide)
# peptide: RNWLDKDCVWMGDCGARAGEAAAGAPVPYPDPLEPRP
# notes: as for B1
# B10: DGI-2-20R-4-H7 (peptide)
# peptide: LSHPMSPLRAASQMALTQGVAAAGAPVPYPDPLEPRP
# notes: as for B1
# B11: DGI-2-20F-3-C12 (peptide)
# peptide: LTPYSLARSWLSGRPSTGATAAAGAPVPYPDPLEPRP
# notes: as for B1
# B12: DGI-2-40F-3-D72 (peptide)
# peptide: MGSLGPFGNINSLASGIGSVRNRPLLPLHGSPAAAGAPVPYPDPLEPRP
# notes: as for B1
# B13: DGL-2-20R-3-B6 (peptide)
# peptide: TSCQVMFLAGQHLLSRVPRLAAAGAPVPYPDPLEPRP
# notes: as for B1
# B14: DGI-2-20R-3-B12 (peptide)
# peptide: DGKHLTKWSGRGWWSAWVGGAAAGAPVPYPDPLEPRP
# B15: DGI-2-20R-3-B11 (peptide)
# peptide: GWGCSVPGILCVGGHRQGGGAAAGAPVPYPDPLEPRP
# B16: DGI-2-40F-4-E62 (peptide)
# peptide: TCWHRGLNVVRYSVNFGVRDARLTTQGMAWFPPGCGQGCVAAAGAPVPYPDPLEPRP
# Molecular target: T3, antibody raised against ETAG
# T3 construct: read-out of display; also called E-tag antibody; E tag antibody
# Assay: phage ELISA, 405 nm; anti-E-tag antibody coated
# Experimental: (§1) For analysis of individual target binders, colonies were picked and phage prepared as described above using helper phage, M13KO7. Ninety-six-well microtiter plates were coated with 500 ng/well of specific target protein, 500 ng/well lactate dehydrogenase (LDH) irrelevant or non-specific target, 500 ng/well of positive control antibody raised against ETAG, and negative control of non-fat milk powder-PBS 2% at 4° C. overnight. Plates were then blocked with 350 microliters/well PBS containing 2% non-fat milk for 1 hr at room temperature. One hundred microliters per well of phage from isolated clones were added and plates were incubated at room temperature for 2 hr after centrifuging samples for 20 minutes at 3500 rpm at 4° C. The phage solution was then removed, and the wells were washed three times with PBS at room temperature. Antibody raised against M13 conjugated to horseradish peroxidase (Pharmacia) was diluted 1:3000 in PBS-Tween and added to each well (100 µl/well). Incubation was for 1 hr at room temperature, followed by washing with PBS-(0.5%) Tween 3 times as described. Color was developed by addition of ABTS solution (100 µl/well; Boehringer, Indianapolis, Ind.). Plates were analyzed at 405 nm. A clone was considered "positive" if the $A405$ of the well was $\geq$2-fold over background.
row,Binder,ETAG (OD)
1,B1,19.6 OD
2,B2,14.3 OD
3,B3,13.5 OD
4,B4,14 OD
5,B5,11.7 OD
6,B6,7.2 OD
7,B7,10.9 OD
8,B8,10.5 OD
9,B9,16.9 OD
10,B10,14.1 OD
11,B11,15.1 OD
12,B12,14 OD
13,B13,11.7 OD

# Molecular target: T1, DGI-2 polypeptide
# Assay: phage ELISA
# Outline: (§2)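 Phage from individual clones were bound for 2 h at RT to wells coated with 500 ng DGI-2, LDH (non-specific), anti-E-tag antibody (positive control) or milk (negative control). Bound phage were detected with HRP-anti-M13 and ABTS at A405; positive clones gave ≥2-fold signal over background.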
Binder,DGI-2 (OD),DGI-2/LDH
B14,5.7 OD,5.5 ratio
B15,5.9 OD,5.7 ratio
B16,4.6 OD,4.5 ratio

# Molecular target: T4, antibody raised against ETAG
# T4 construct: Coated at 500 ng/well; also called E-tag antibody
# Assay: phage ELISA
# Outline: as §2
row,Binder,ETAG (OD)
1,B14,15.5 OD
2,B15,16.9 OD
3,B16,14.8 OD

# Molecular target: T5, lactate dehydrogenase (LDH)
# T5 construct: Coated at 500 ng/well as non-specific target; also called LDH polypeptide
# Assay: phage ELISA
# Outline: as §2
row,Binder,LDH (OD)
1,B14,1 OD
2,B15,1 OD
3,B16,1 OD

# Molecular target: T2, DGI-2 polypeptide
# Assay: phage ELISA, 405 nm; DGI-2 coated
# Experimental: as §1
row,Binder,DGI-2 (OD)
1,B1,3.9 OD
2,B2,3.4 OD
3,B3,3.2 OD
4,B4,3.4 OD
5,B5,3.1 OD
6,B6,3.8 OD
7,B7,3.7 OD
8,B8,3.8 OD
9,B9,3.8 OD
10,B10,3.1 OD
11,B11,3.2 OD
12,B12,3.1 OD
13,B13,2.8 OD

# Molecular target: T2, DGI-2 polypeptide
# Assay: phage ELISA, 405 nm; DGI-2 signal over LDH signal
# Experimental: as §1
row,Binder,DGI-2/LDH (OD)
1,B1,3.7 ratio
2,B2,3.4 ratio
3,B3,3.2 ratio
4,B4,3.4 ratio
5,B5,3 ratio
6,B6,3.9 ratio
7,B7,2.8 ratio
8,B8,2.9 ratio
9,B9,4.1 ratio
10,B10,2.6 ratio
11,B11,3.1 ratio
12,B12,2.8 ratio
13,B13,2.7 ratio
